No end group written: not given here. *: point of attachment. Propanoyl(3-indol-3-yl) = O=C(CCc1c[nH]c2ccccc12)*; 125I = [125I]*
Key:
[1] = molecular target: T1, TGR26, rat-derived G protein-coupled receptor protein (rat, UniProt Q56UD9 1-329); experiment: competition with [125I-Tyr10]-hGPR8L(1-23), membrane fraction of TGR26 expressing CHO cells
T1 construct: Expressed in CHO dhfr- cells from pAK-rGPR7; also called rat TGR26; TGR26 receptor
T1 sequence: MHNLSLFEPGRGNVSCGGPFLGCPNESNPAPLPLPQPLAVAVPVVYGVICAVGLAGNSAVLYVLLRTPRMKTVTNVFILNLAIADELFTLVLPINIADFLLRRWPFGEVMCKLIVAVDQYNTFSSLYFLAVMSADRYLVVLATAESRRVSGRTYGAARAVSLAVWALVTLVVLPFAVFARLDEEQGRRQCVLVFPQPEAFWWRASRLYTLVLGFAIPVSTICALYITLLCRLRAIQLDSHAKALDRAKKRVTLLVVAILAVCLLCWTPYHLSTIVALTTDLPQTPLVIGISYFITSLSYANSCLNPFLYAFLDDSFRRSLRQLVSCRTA
Experimental: (§1) Cell membrane fraction prepared from TGR26 expressing cells was diluted to various concentration with assay buffer (25 mM Tris-HCl, 5 mM EDTA, 0.05% CHAPS (3-[(3-Cholamidopropyl) Dimethyl-Ammonio]-1-Propanesulfonate), 0.1% BSA, 0.5 mM PMSF, 1 μg/ml Pepstatin, 20 μg/ml Leupeptin, 4 μg/ml E-64, pH7.4), and 200 μl each of the diluent was dispensed into polypropilene test tube (Falcon 2053). In order to determine an amount of maximum binding, 2 μl of DMSO and 2 μl of 7 nM [¹²⁵-Tyr¹⁰]-hGPR8L(1-23) were added to the membrane fraction solution. Further, in order to determine a non-specific binding, 2 μl of 100 μM hGPR8L(1-23)/DMSO solution and 2 μl of 7 nM [¹²⁵I]-Tyr¹⁰]-hGPR8L(1-23) were added to the membrane fraction solution. The reaction was done at 25° C. for 75 minutes, and the reaction mixture was filtered by suction filtration using Whatman glassfilter (GF-F) treated with polyethyleneimine. In addition, the filter was washed twice with 1.5 ml of washing buffer (25 mM Tris-HCl, 5 mM EDTA, 0.05% CHAPS, 0.1% BSA, pH7.4). After filtration, a radioactivity remaining on the filter was counted using γ-counter, and an amount of specific binding was estimated by subtracting an amount of non-specific binding from an amount of maximum binding.
A receptor binding activity of human- and porcine-homologue derivatives of GPR8 ligand peptide obtained in the reference examples was measured using a membrane fraction of TGR26 expressing CHO cells and [¹²⁵I-Tyr¹⁰]-hGPR8L(1-23) by the method described in Reference Example 73.

[2] = molecular target: T2, Human GPR8 receptor protein (human, UniProt P48146 1-333); experiment: cell-based or functional assay
Human GPR7 [3] = molecular target: T3, Human GPR7 (human, UniProt P48145 1-328); experiment: competition with [125I-Tyr10]-hGPR8L(1-23), membrane fraction of GPR7 expressing CHO cells
T3 construct: Full-length receptor expressed in CHO dhfr- cells; also called Human GPR7 receptor; GPR7 receptor
T3 sequence: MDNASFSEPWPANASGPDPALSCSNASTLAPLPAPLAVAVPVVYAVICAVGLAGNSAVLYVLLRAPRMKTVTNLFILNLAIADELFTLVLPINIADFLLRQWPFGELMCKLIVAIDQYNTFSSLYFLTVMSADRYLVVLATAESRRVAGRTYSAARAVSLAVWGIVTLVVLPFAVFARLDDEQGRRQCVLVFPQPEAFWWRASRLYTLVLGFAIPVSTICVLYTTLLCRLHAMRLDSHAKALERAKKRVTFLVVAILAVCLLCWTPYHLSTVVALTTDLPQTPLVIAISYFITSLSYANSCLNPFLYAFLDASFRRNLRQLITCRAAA

[4] = molecular target: T2, Human GPR8 receptor protein; experiment: competition with [125I-Tyr10]-hGPR8L(1-23), membrane fraction of GPR8 expressing CHO cells
Experimental: (§2) Cell membrane fraction prepared from Human GPR8 expressing cells was diluted to various concentration with assay buffer (25 mM Tris-HCl, 5 mM EDTA, 0.05% CHAPS (3-[(3-Cholamidopropyl) Dimethyl-Ammonio]-1-Propanesulfonate), 0.1% BSA, 0.25 mM PMSF, 1 μg/ml Pepstatin, 20 μg/ml Leupeptin, pH7.4), and 200 μl each of the diluent was dispensed into polypropilene test tube (Falcon 2053). In order to determine an amount of maximum binding (TB), […] of DMSO and 2 μl of 7 nM [¹²⁵I-Tyr²]-hGPR8L(1-23) or [¹²⁵I-Tyr¹⁰]-hGPR8L(1-23) were added to the membrane fraction solution. Further, in order to determine a non-specific binding (NSB), 2 μt of 100 μM hGPR8L(1-23)/DMSO solution and 2 μl of 7 nM [¹²⁵I]-Tyr²]-hGPR8L(1-23) or [¹²⁵I-Tyr¹⁰]-hGPR8L(1-23) were added to the membrane fraction solution. The reaction was done at 25° C. for 60 minutes, and the reaction mixture was filtered by suction filtration using Whatman glassfilter (GF-F) treated with polyethyleneimine. After filtration, a radioactivity remaining on the filter was counted using γ-counter, and an amount of specific binding (SB) was estimated by subtracting an amount of non-specific binding from an amount of maximum binding. Since the specific binding in the case where [¹²⁵I-Tyr¹⁰]-hGPR8L(1-23) was used, was twice as much as that in the case where [¹²⁵1-Tyr²]-hGPR8L(1-23) was used, in practice, [¹²⁵I-Tyr¹⁰]-hGPR8L(1-23) was used in the assay. When the concentration of membrane fraction was changed, a specific binding of [¹²⁵I-Tyr¹⁰]-hGPR8L(1-23) was perceived depending on the concentration of membrane fraction.
A receptor binding activity of human- and porcine-homologue derivatives of GPR8 ligand peptide, wherein the synthesis method has been described in the specification, was measured using a membrane fraction of GPR8 expressing CHO cells and [¹²⁵-Tyr¹⁰]-hGPR8L(1-23) by the method described in Reference Example 43.

Human GPR7 [5] = molecular target: T3, Human GPR7; experiment: cell-based or functional assay
[6] = molecular target: T2, Human GPR8 receptor protein; experiment: radioligand filter binding, membrane fraction of Human GPR8 expressing CHO cells
Experimental: Using [¹²⁵I]-labeled hGPR8L(1-23) prepared as described in Reference Example 42 and a cell membrane fraction prepared from Human GPR8 expressing cells by the similar manner as described in Reference Example 6, a receptor binding assay was carried out as follows.
as §2, with “The reaction was done at 25° C. for 60 minutes, and the reaction mixture was filtered by suction filtration using Whatman glassfilter (GF-F) treated with polyethyleneimine.” left out, “Since the specific binding in the case where [¹²⁵I-Tyr¹⁰]-hGPR8L(1-23) was used, was twice as much as that in the case where [¹²⁵1-Tyr²]-hGPR8L(1-23) was used, in practice, [¹²⁵I-Tyr¹⁰]-hGPR8L(1-23) was used in the assay. When the concentration of membrane fraction was changed, a specific binding of [¹²⁵I-Tyr¹⁰]-hGPR8L(1-23) was perceived depending on the concentration of membrane fraction.” left out

Human GPR7 [7] = molecular target: T3, Human GPR7; experiment: cell-based or functional assay; remark: listed apart in the source
Human GPR7 [8] = molecular target: T3, Human GPR7; experiment: radioligand filter binding, membrane fraction of Human GPR7 expressing CHO cells
[9] = molecular target: T1, TGR26, rat-derived G protein-coupled …; experiment: radioligand filter binding, membrane fraction of TGR26 expressing CHO cells
Experimental: as §1, with “binding. […]” for “binding.”

T2 sequence (P48146 whole entry): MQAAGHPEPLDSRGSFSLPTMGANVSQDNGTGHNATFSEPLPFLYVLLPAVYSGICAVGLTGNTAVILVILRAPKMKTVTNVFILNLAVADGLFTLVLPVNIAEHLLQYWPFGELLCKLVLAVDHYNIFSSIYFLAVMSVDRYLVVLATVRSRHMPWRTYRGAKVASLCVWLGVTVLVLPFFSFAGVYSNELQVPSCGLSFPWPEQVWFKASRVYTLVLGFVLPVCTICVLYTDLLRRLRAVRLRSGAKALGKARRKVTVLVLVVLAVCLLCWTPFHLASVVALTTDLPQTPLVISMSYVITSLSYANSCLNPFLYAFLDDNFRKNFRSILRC

## Ac-YKHVASPRYHTVGRAAGLLMGL (also called Ac-hGPR8L(2-23)) [[N-Acetyl-Tyr^2]-Human GPR8 ligand (2-23)]
[1]
  IC50: 570 nM
[2]
  Promoting activity to GTPγS binding (EC50 nM): 7200 nM
Human GPR7 [3]
  IC50: 570 nM
[4]
  IC50: 420 nM
Human GPR7 [5]
  Promoting activity to GTPγS binding (EC50 nM): 7000 nM

## WYKHVASPRYHTVGRAAG (also called hGPR8L(1-18)) [Human GPR8 ligand (1-18)]
[1]
  IC50: 760 nM
[2]
  Promoting activity to GTPγS binding (EC50 nM): > 10000 nM
Human GPR7 [3]
  IC50: 2400 nM
[4]
  IC50: 2700 nM
Human GPR7 [5]
  Promoting activity to GTPγS binding (EC50 nM): 6200 nM

## WYKHVASPRYHTVGRAAGLLXGL (methionine sulfoxide, Met(O), at position 21, also called [MET(O)]-hGPR8L(1-23)) [Human GPR8 ligand (1-23) oxidant]
[1]
  IC50: 0.29 nM
[2]
  Promoting activity to GTPγS binding (EC50 nM): 1.4 nM
Human GPR7 [3]
  IC50: 0.17 nM
[4]
  IC50: 0.31 nM
Human GPR7 [5]
  Promoting activity to GTPγS binding (EC50 nM): 1.6 nM

## {Propanoyl(3-indol-3-yl)}-YKHVASPRYHTVGRAAGLLMGL (also called IndPr-hGPR8L(2-23)) [[N-3-Indolepropanoyl-Tyr^2]-human GPR8 ligand (2-23)]
[1]
  IC50: 0.12 nM
[2]
  Promoting activity to GTPγS binding (EC50 nM): 5 nM
Human GPR7 [3]
  IC50: 0.044 nM
[4]
  IC50: 0.28 nM
Human GPR7 [5]
  Promoting activity to GTPγS binding (EC50 nM): 0.85 nM

## WYKHVASPRYHTVGRAAGLL (also called hGPR8L(1-20)) [Human GPR8 ligand (1-20)]
[1]
  IC50: 0.17 nM
[2]
  Promoting activity to GTPγS binding (EC50 nM): 0.86 nM
Human GPR7 [3]
  IC50: 0.094 nM
[4]
  IC50: 0.2 nM
Human GPR7 [5]
  Promoting activity to GTPγS binding (EC50 nM): 0.88 nM

## XYKHVASPRYHTVGRAAGLLMGL (N-alpha-acetyl on Trp 1, also called Ac-hGPR8L(1-23)) [[N^α-Acetyl-Trp^1]-Human GPR8 ligand (1-23)]
[1]
  IC50: 0.27 nM
[2]
  Promoting activity to GTPγS binding (EC50 nM): 14 nM
Human GPR7 [3]
  IC50: 0.077 nM
[4]
  IC50: 2.4 nM
Human GPR7 [5]
  Promoting activity to GTPγS binding (EC50 nM): 1.5 nM

## XYKHVASPRYHTVGRAAGLLMGL (D-Trp at position 1, also called [D-Trp^1]-hGPR8L(1-23)) [[D-Trp^1]-Human GPR8 ligand (1-23)]
[1]
  IC50: 1.3 nM
[2]
  Promoting activity to GTPγS binding (EC50 nM): 7.1 nM
Human GPR7 [3]
  IC50: 0.63 nM
[4]
  IC50: 0.82 nM
Human GPR7 [5]
  Promoting activity to GTPγS binding (EC50 nM): 2.3 nM

## WY(125I)KHVASPRYHTVGRAAGLLMGL [[^125I-Tyr^2]-hGPR8L(1-23)]
[6]
  binding result: binds

## RYHTVGRAAGLLMGL (also called hGPR8L(9-23)) [Human GPR8 ligand (9-23)]
[1]
  IC50: 2500 nM
[2]
  Promoting activity to GTPγS binding (EC50 nM): 4200 nM
Human GPR7 [3]
  IC50: 2200 nM
[4]
  IC50: 1300 nM
Human GPR7 [5]
  Promoting activity to GTPγS binding (EC50 nM): > 10000 nM

B1: human homologue of GPR8 ligand peptide consisting of 30 residues (peptide)
peptide: WYKHVASPRYHTVGRAAGLLMGLRRSPYLW
notes: also called hGPR8L(1-30); Human GPR8 ligand (1-30)
Human GPR7 [7]
  inhibition of intracellular cAMP production (IC50): 0.13 nM
Human GPR7 [3]
  IC50: 0.025 nM
Human GPR7 [5]
  Promoting activity to GTPγS binding (EC50 nM): 0.67 nM

B2: Fmoc-added Human GPR8L (1-23) (peptide)
peptide: XYKHVASPRYHTVGRAAGLLMGL
modifications: N-terminal Fmoc (N-9-fluorenylmethoxycarbonyl) on Trp 1
notes: also called Fmoc-hGPR8L(1-23); Human GPR8 ligand (1-23) modified by Fmoc
[1]
  IC50: 0.23 nM
[2]
  Promoting activity to GTPγS binding (EC50 nM): 240 nM
Human GPR7 [3]
  IC50: 0.14 nM
[4]
  IC50: 0.2 nM
Human GPR7 [5]
  Promoting activity to GTPγS binding (EC50 nM): 6.6 nM

## WYKHVASPRY(125I)HTVGRAAGLLMGL [[^125I-Tyr^10]-hGPR8L(1-23)]
Human GPR7 [8]
  binding result: binds
[6]
  binding result: binds
[9]
  binding result: binds

B3: porcine GPR8 ligand (1-23) (peptide)
peptide: WYKHTASPRYHTVGRAAGLLMGL
notes: also called pGPR8L(1-23); porcine homologue of GPR8 ligand peptide
[1]
  IC50: 0.12 nM
[2]
  Promoting activity to GTPγS binding (EC50 nM): 1.5 nM
Human GPR7 [3]
  IC50: 0.066 nM
[4]
  IC50: 0.38 nM
Human GPR7 [5]
  Promoting activity to GTPγS binding (EC50 nM): 0.35 nM

## YKHVASPRYHTVGRAAGLLMGL (also called hGPR8L(2-23)) [Human GPR8 ligand (2-23)]
[1]
  IC50: 240 nM
[2]
  Promoting activity to GTPγS binding (EC50 nM): 3900 nM
Human GPR7 [3]
  IC50: 140 nM
[4]
  IC50: 160 nM
Human GPR7 [5]
  Promoting activity to GTPγS binding (EC50 nM): 7410 nM

## HVASPRYHTVGRAAGLLMGL (also called hGPR8L(4-23)) [Human GPR8 ligand (4-23)]
[1]
  IC50: 2000 nM
[2]
  Promoting activity to GTPγS binding (EC50 nM): 6700 nM
Human GPR7 [3]
  IC50: 1200 nM
[4]
  IC50: 1400 nM
Human GPR7 [5]
  Promoting activity to GTPγS binding (EC50 nM): > 10000 nM

## WYKHVASPRYHTVGRAAGL (also called hGPR8L(1-19)) [Human GPR8 ligand (1-19)]
[1]
  IC50: 9.9 nM
[2]
  Promoting activity to GTPγS binding (EC50 nM): 1000 nM
Human GPR7 [3]
  IC50: 1.7 nM
[4]
  IC50: 100 nM
Human GPR7 [5]
  Promoting activity to GTPγS binding (EC50 nM): 84 nM

— patent US20050124539A1 (Takeda / Millennium, published 2005)
